Laboratory results reported in patent US20170342155A1 (Amgen, published 2017).

T1: wild-type human CCR7 (pcDNA3.1 Neo-hCCR7, 20100121357) (human, UniProt P32248 25-378)
T1 construct: Expressed on transfected 293T, CHO AM1/D or HEK293T cells; also called huCCR7; CCR7 receptor
T1 sequence: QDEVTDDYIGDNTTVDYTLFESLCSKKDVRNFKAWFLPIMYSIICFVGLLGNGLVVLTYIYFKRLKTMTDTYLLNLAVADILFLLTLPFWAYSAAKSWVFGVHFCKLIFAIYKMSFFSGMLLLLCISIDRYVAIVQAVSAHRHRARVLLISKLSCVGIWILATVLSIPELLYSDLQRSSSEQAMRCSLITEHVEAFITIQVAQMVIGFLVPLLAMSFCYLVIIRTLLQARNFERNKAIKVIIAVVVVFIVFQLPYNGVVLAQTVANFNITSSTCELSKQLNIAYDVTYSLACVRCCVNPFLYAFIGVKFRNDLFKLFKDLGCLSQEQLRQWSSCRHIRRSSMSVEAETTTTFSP


Tests used:
[1] = target: T1, wild-type human CCR7 (pcDNA3.1 …); assay: hybridoma screening on cells expressing human CCR7
[2] = target: T1, wild-type human CCR7 (pcDNA3.1 …); assay: flow cytometry on transfected 293T cells, PE secondary antibody, geo mean

| binding result [1] | binding result [2] | Binder |
| --- | --- | --- |
| binds | – | antibody 6B4.1 (antibody, V domains shown, Human antibody from XenoMouse hybridoma; Light = 2 and heavy = 42 is inferred from the order of the listing (light chains first)) VH: QVQLVESGGGVVQPGRSLRLSCAASGFTFSSYGMHWVRQAPGKGLEWVAVIWYDGSKKYYADSVKGRFTISRDNSKNTLYLQMNRLRAEDTAVYYCARDGGIAVFLQDNWFDPWGQGTLVTVSS VL: SYELTQPPSVSVSPGQRARITCSGDKLGDKYASWYQQKPGQSPLLVIYQDSKRPSGIPERFSGSNSGNTATLTISGTQAMDEADYYCQAWGSSTVIFGGGTKLTVLG |
| – | binds | antibody 6B5.1 (antibody, human IgG2, lambda, V domains shown, Human antibody from XenoMouse hybridoma; Light = 18 and heavy = 50 is inferred from the order of the listing) VH: QVQLVESGGGVVQPGRSLRLSCAASGFTFRSYGMHWVRQAPGKGLEWVAVIWYDGSKKYYADSVKGRFTISRDNSKNTLYLQMNRLRAEDTAVYYCARDGGIAVFLEDNWFDPWGQGTLVTVSS VL: SYELTQPPSVSVSPGQRASITCSGDKLGDKYASWYQQKPGQSPLLVIYQDGKRPSGIPERFSGSNSGNTATLTISGTQAMDEADYYCQAWGSSTVIFGGGTKLTVLG |
